# Data: publication PMC7190626
# B1: α1D-adrenergic receptor (α1D-AR): N65Q (protein)
# parent chain: MTFRDLLSVSFEGPRPDSSAGGSSAGGGGGSAGGAAPSEGPAVGGVPGGAGGGGGVVGAGSGEDNRSSAGEPGSAGAGGDVNGTAAVGGLVVSAQGVGVGVFLAAFILMAVAGNLLVILSVACNRHLQTVTNYFIVNLAVADLLLSATVLPFSATMEVLGFWAFGRAFCDVWAAVDVLCCTASILSLCTISVDRYVGVRHSLKYPAIMTERKAAAILALLWVVALVVSVGPLLGWKEPVPPDERFCGITEEAGYAVFSSVCSFYLPMAVIVVMYCRVYVVARSTTRSLEAGVKRERGKASEVVLRIHCRGAATGADGAHGMRSAKGHTFRSSLSVRLLKFSREKKAAKTLAIVVGVFVLCWFPFFFVLPLGSLFPQLKPSEGVFKVIFWLGYFNSCVNPLIYPCSSREFKRAFLRLLRCQCRRRRRRRPLWRVYGHHWRASTSGLRQDCAPSSGDAPPGAPLALTALPDPDPEPPGTPEMQAPVASRRKPPSAFREWRLLGPFRRPTTQLRAKVSSLSHKIRAGGAQRAEAACAQRSEVEAVSLGVPHEVAEGATCQAYELADYSNLRETDI
# B2: α1D-adrenergic receptor (α1D-AR): tunicamycin 5 μg/mL (protein)
# parent chain: B1 parent chain
# B3: α1D-adrenergic receptor (α1D-AR): N82Q (protein)
# parent chain: B1 parent chain
# B4: α1D-adrenergic receptor (α1D-AR): NQQ (protein)
# parent chain: B1 parent chain
# B5: α1D-adrenergic receptor (α1D-AR): S-NQQ-C (protein)
# parent chain: B1 parent chain
# What was measured:
# [1] = confocal colocalisation with ER stain CytoPainter; details: glycan lost; control: WT SNAP-α1D
# [2] = sucrose density gradient fractionation, PAGE NIR; details: glycan lost; control: WT SNAP-α1D
# [3] = PAGE NIR of SNAP-labelled HEK293 lysate; details: glycan lost; control: WT SNAP-α1D
# [4] = cell-impermeable SNAP substrate BG-782 surface labelling; details: glycan lost; control: WT SNAP-α1D
# [5] = PAGE NIR after 16 hr tunicamycin; details: glycan lost; control: EtOH vehicle
# [6] = SNAP-Capture pull-down, MS/MS peptide coverage; details: glycan lost; control: WT SNAP-α1D
# [7] = dual SNAP/CLIP tag PAGE NIR; details: glycan lost; control: S-WT-C
Protein,"localisation_or_trafficking, other: % total AUC in low-density (ER) peak [2]",other: full-length receptor biogenesis [3],"localisation_or_trafficking, other: % change from SNAP alone [4]",further results
B1,"changes, 46.33 vs 92.47",no change,"decreases, 13.40 ± 4.65 vs 46.13 ± 5.61","localisation_or_trafficking, other: Pearson's coefficient [1]: no change, 0.70 ± 0.04 vs 0.72 ± 0.03"
B2,,,,other: full-length receptor biogenesis [5]: changes
B3,"no change, 89.13 vs 92.47",no change,"decreases, 9.49 ± 5.95 vs 46.13 ± 5.61",
B4,,"abolishes, primarily expressed as a single, robust band of ~43 kDa in size",,other: full-length receptor biogenesis [6]: abolishes
B5,,,,other: full-length receptor biogenesis [7]: abolishes
